Source: article PMC11464976, “Insights into structure and activity of a UDP-GlcNAc 2-epimerase involved in secondary cell wall polymer biosynthesis in Paenibacillus alvei” (Frontiers in Molecular Biosciences, 2024)

Legend:
Assay in all cases: purified protein
Format in all cases: biochemical, Paenibacillus alvei
[1] = test system: T1, CC(=O)N[C@H]1[C@@H](OP(=O)(O)OP(=O)(O)OC[C@H]2O[C@@H](n3ccc(=O)[nH]c3=O)[C@H](O)[C@@H]2O)O[C@H](CO)[C@@H](O)[C@@H]1O; conditions: forward reaction, 10 mM sodium phosphate pH 8.0, 50 mM MgCl2, 30 °C, apparent constant
T1 construct: amino acids 1-384, Leu-Glu linker and C-terminal His6 tag, pET22b(+), E. coli BL21(DE3), Ni-NTA

purified protein [2] = substrate: CC(=O)N[C@@H]1[C@@H](OP(=O)(O)OP(=O)(O)OC[C@H]2O[C@@H](n3ccc(=O)[nH]c3=O)[C@H](O)[C@@H]2O)O[C@H](CO)[C@@H](O)[C@@H]1O; conditions: reverse reaction, 10 mM sodium phosphate pH 8.0, 50 mM MgCl2, 30 °C, 45 min, apparent constant
purified protein [3] = substrate: CC(=O)N[C@H]1[C@@H](OP(=O)(O)OP(=O)(O)OC[C@H]2O[C@@H](n3ccc(=O)[nH]c3=O)[C@H](O)[C@@H]2O)O[C@H](CO)[C@@H](O)[C@@H]1O; conditions: forward reaction, 10 mM sodium phosphate pH 8.0, 50 mM MgCl2, 30 °C, 5 min, apparent constant
[4] = kcat 0.05 in text fits printed kcat/Km 0.03, table prints 0.53

Molecule: PaMnaA (MnaA.His6) (Paenibacillus alvei; Q42A)
- Km [1, 4]: 1.61 mM
- kcat [1, 4]: 0.05 s⁻¹
- kcat/Km [1, 4]: 30 M⁻¹ s⁻¹

Molecule: PaMnaA (MnaA.His6) (Paenibacillus alvei; H241A)
- Km [1]: 3.27 mM
- kcat [1]: 0.53 s⁻¹
- kcat/Km [1]: 160 M⁻¹ s⁻¹

Molecule: PaMnaA (MnaA.His6) (Paenibacillus alvei; Q69A)
- Km [1]: 8.92 mM
- kcat [1]: 37.9 s⁻¹
- kcat/Km [1]: 4250 M⁻¹ s⁻¹

B1: PaMnaA (MnaA.His6) (Paenibacillus alvei) (protein)
chain: MSKVKVMTVFGVRPEAIKMAPLILELQKHPEHIESIVCVTAQHRQMLDQVLDVFNIKPDYDLDIMQARQTLNDISVRVLQGLEPVLQEAKPDIVLVHGDTLTTFLASYAAFMQQIKVGHVEAGLRTWNKLSPFPEEMNRQLTGVLADLHFAPTDWSASNLRKENKQDASIFVTGNTVTDVFQYTVRSDYKHEVLDWAQGKRLVLMTAHRRESQGEPHRNIFRAVRRIADEFEDIAIVYPVHPSPAVREPAHEMLGDHPRIKLIDPLDVVDLHNFYPHTHLILTDSGGLQEEAPSFGIPVLVLRETTERPEGIDAGTLELVGTDEEKVYARAKALLSDETTYARMSKAANPYGDGKASQRIVSAILHSFGVLEERPEPFHTKFTN
notes: amino acids 1-384, Leu-Glu linker and C-terminal His6 tag, pET22b(+), E. coli BL21(DE3), Ni-NTA
- Km (purified protein [2]): 2.41 mM
- kcat (purified protein [2]): 6.02 s⁻¹
- Km (purified protein [3]): 3.91 mM
- kcat (purified protein [3]): 33.4 s⁻¹
- kcat/Km (purified protein [3]): 8560 M⁻¹ s⁻¹
